Measurements as given in the supplement of paper PMC9170038.

Tested on: MS2 coat protein
Assay: apparent KD of MS2 coat protein; higher = weaker reporter binding
Settings: Eterna round: R107
How it was run: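 With or without constant ligand, designed RNA switches in 100 mM Tris-HCl pH 7.5, 80 mM KCl and 4 mM MgCl2 were titrated with SNAP-549-labelled MS2 coat protein. Concentrations went up in twofold steps from 0.7 or 1.5 nM to 3 µM. The switches had been transcribed on-chip from Illumina sequencing clusters, and apparent KD is the per-design median of normalised cluster binding-curve fits.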

[1] = input ligand: theophylline 20 uM
[2] = input ligand: theophylline 2 mM
[3] = input ligand: tryptophan 2.4 mM

Sequence | apparent KD of MS2 coat protein (input ligand: arginine 13.2 mM) [µM] | apparent KD of MS2 coat protein (input ligand: none) [µM] | apparent KD of MS2 coat protein [1] [µM] | apparent KD of MS2 coat protein [2] [µM] | apparent KD of MS2 coat protein [3] [µM]
GGGCAAGAGGGAAGGAGCGUCAGCUGAGUAACAUGAGGAUCACCCAUGUAGCACAUAGUGUGACAGGUAGGUCGCCCUCUGCCCU [SS-ArgB6] | 0.0126 | 0.00897 | 0.0104 | 0.00842 | 0.0125
GGGCAAGAGGGAAGGAGCGUCAGCUGAGUCACAUGAGGAUCACCCAUGUCGCACAUAGUGUGACAGGUAGGUCGCCCUCUGCCCU [Zaistiqu] | 0.0743 | 0.131 | 0.158 | 0.201 | 0.133
GGGCACAUGAGGAUCACCCAUGUCCAACGGCGAGGACCGGUACGGCCGCCACUCGGUAUAAGCUUCGAAAAGGAGGAUCCUGCAG [theeternabot_sameState_MS2_Trp_A_35] | 0.0204 | – | 0.0563 | 0.0477 | –
GGGCCCGGGCGCGAGCCCGGGCCCAUUGAUACCAGUGAAUGUGUGCGCCCUUGGCAGCGAAUCCUAACAUGAGGAUCACCCAUGU [5.E] | 0.0162 | 0.0286 | 0.117 | 0.0504 | 0.0483
GGGCGCGAGACGGCCGCCACUACACAUGAGGAUCACCCAUGUAUGGCAACAUGAGGAUCUGCCAUUAGGACCGGGUCAGGGCCCA | 0.0293 | 0.0312 | 0.0534 | 0.0418 | 0.0385
GGGCGCGUGGACUGGCGUGCUCCGCUCCGUCGAGGACCGGUACGGCCGCCACUCGACAUGAGGAUCACCCAUGUGUGCGCUCGCG [#1 Exclusion - Tryptophan A Attempt #18 (HarryS)] | 0.0145 | 0.021 | 0.194 | 0.0404 | 0.00736
GGGUACAUCGCGGCCGCCACUCAUGUAAAUGCAUGAGGAACACCCAUGCCGAUGGAGACAUCGGAGAGGACCGGGUGAUGUACCG | 0.066 | 0.11 | 0.157 | 0.148 | 0.0937
GGGUACAUCGCGGCCGCCACUGGUGUAAAUACAUGAGGAUCACCCAUGUCGAUGGAGACAUCGGGUAGGACCGGGUGAUGUACCG | 0.0198 | 0.0219 | 0.0373 | 0.0302 | 0.0243
GGGUACAUCGCGGCCGCCACUUGUGUAAAUACAUGAGGAUCACCCAUGUCGAUGGAGACAUCGGCAAGGACCGGGUGAUGUACCG | 0.107 | 0.13 | 0.172 | 0.146 | 0.0152
GGGUACAUCGCGGCCGCCACUUUUGUAAAUACAUGAGGAUCACCCAUGUCGAUGGAGACAUCGGUGAGGACCGGGUGAUGUACCG | 0.196 | 0.624 | 0.523 | 0.721 | 0.295
GGGUCCGUCGGAAGGAGCGACAUGAGGAUCACCCAUGUCUCCCGUUAUGGGAGUUCUUUAGGUCAGGUAGGUCGCCGGCGGGUCC [#1 Exclusion - Arginine B Attempt #13 (Inspired by Omei)] | 0.065 | 0.141 | 0.196 | 0.164 | 0.119
GGUAUUGGAACAGAUACCAGUAUCUGUUGAUCCUACAUGAGGAUCACCCAUGUUAGAAAGUACCCUUGGCAGCUGUAAUAAUGCC [Theo B Ex t1] | 0.0527 | – | 0.0766 | – | 0.0494
GGUCAGCAGUCGGCCGCCACUAGUAUACAUGAGGAUCACCCAUGUCCCUUGCGCCUCACCGAUUUUAGGACCGGGACACUGCCUG [theeternabot_exclusion_MS2_Trp_B_9] | 0.0251 | – | 0.042 | 0.0402 | –
GGUCUCUGGAGCGAUACCAGCUUAAUCGUACUGGCCAGGUACAUGAGGAUCACCCAUGUAAGCCCUUGGCAGCGCUCCAGAGACC [#1 Exclusion - Theophylline B Attempt #11 (HarryS)] | 0.00602 | 0.0129 | 0.0164 | 0.0144 | 0.0105
GGUCUCUGGAGCGAUACCAGCUUGAGUGUACUGGCCAGGUACAUGAGGAUCACCCAUGUAAGCCCUUGGCAGCGCUGCAGAGACC [#1 Exclusion - Theophylline B Attempt #16 (HarryS)] | 0.00975 | – | 0.015 | – | 0.0112
GGUGGCUGGACUGAUACCAGCCACCACCGAUAGACCACAUGAGGAUCACCCAUGUUGGGUGGCCCUUGGCAGCAGUCUAGCUGCC [#1 Same State - Theophylline B Attempt #11 (HarryS)] | 0.231 | – | 0.727 | – | 0.441
GGUUACUCUACGGCCGCCACUGAUUAUUUAUAAUCCUGUACAUAAACAUGAGGAUCACCCAUGUACAGGACCGGGUAGUGUAACC [Tryptophan B 11] | 0.0299 | – | 0.0377 | 0.0335 | –
GGUUGAAACUGAAGGAGCGAGAUGACAACAUUGGGUCUAACAUGAGGAUCACCCAUGUAAUCUCAGGUAGGUCGCAGUGACCAAA [Exclusion Arginine B GF 14] | 0.0381 | 0.0502 | 0.0415 | 0.0467 | 0.0431

Sequence | apparent KD of MS2 coat protein (input ligand: arginine 13.2 mM) [µM] | apparent KD of MS2 coat protein (input ligand: none) [µM] | apparent KD of MS2 coat protein [1] [µM] | apparent KD of MS2 coat protein [2] [µM] | apparent KD of MS2 coat protein [3] [µM]
GGUUUAUAUAUAUAUAUAUAGAUUACUGAAGGAGCGGGAAAUAACCCAGGUAGGUCGCAGAGAUCCACAUGAGGAUCACCCAUGU [!0.E] | 0.0371 | 0.0402 | 0.0553 | 0.0543 | 0.0368
GUAAAUGUGACGGAUACCAGCGUGUUGUAGAACAUGAGGAUCACCCAUGUAGUGAUCAUGCGCCCUUGGCAGCUGGUAUGUUUGU [7.aB] | 0.0907 | – | 0.504 | – | 0.684
GUAAUGAUAAGAAGGAGCGUCGAAAAUGGGUAAACAUGAGGAUCACCCAUGUAAAGGGAACGACAGGUAGGUCGCUUAUUAUUAC [AstromonsSSArgB#21] | 0.127 | 0.207 | 0.356 | 0.203 | 0.21
GUACAUGAGGAUCACCCAUGUAUAGUUGAAGGAGCGACCAGAGGGUCAGGUAGGUCGCAGCACAUGAGGUAAGCCCGUGUAUGCU [#1 Exclusion - Arginine A Attempt #19 (Inspired by Pi)] | 0.0307 | 0.0506 | 0.0591 | 0.0351 | 0.032
GUACGAGUUGAAUGUGAGACUGGCGUGGAAGGAGCGCACGGAGGUGCAGGUAGGUCGCCACAUGAGGAUCACCCAUGUCGGCUAG [XARG-A 23] | 0.0221 | 0.0232 | 0.0273 | 0.029 | 0.0259
GUAGCGACGGCGGCCGCCACUCGCACGUGAGGGUAGACCAACCUUCACAUGAGGAUCACCCAUGUGAGGACCGGGCUGUCGCUAC [#15 Exclusion Tryptophan B] | 0.017 | 0.0238 | 0.0304 | 0.0254 | 0.0464
GUAUACAUGAGGAUCACCCAUGUACCAGAAGGAGCGCUGGAAACAGCAGGUAGGUCGCUGGUAGGUCCUCUAUCUAGACGUUCGG [EAA NP+V+V2 #4] | 0.0499 | 0.168 | 0.191 | 0.201 | 0.139
GUAUACAUGAGGAUCACCCAUGUACCAGAAGGAGCGCUGGAAACAGCAGGUAGGUCGCUGGUAGGUCCUCUAUCUAGACGUUCUA [EAA NP+V+V2 #5] | 0.0281 | 0.176 | 0.214 | 0.195 | 0.079
GUAUCUAUGUGAAAUAGAUAUAUAACUGAAGGAGCGUCAUUAAGGACAGGUAGGUCGCAGAGCACCUGAGGAUCACCCAGGUAGG [Arg A SS s1] | 0.027 | 0.0257 | 0.027 | 0.0316 | 0.0272
GUAUGAGUUGACUGUGAGACUGGCGUGGAAGGAGCGCACGGAGGUGCAGGUAGGUCGCCACAUGAGGAUCACCCAUGUCAGGCCG [Ceedtila] | 0.0324 | 0.038 | 0.0564 | 0.111 | 0.053
GUAUGGAAACAUACUAUGGUAUCGUGAGAUACCAGUACAGAAAUGUACCCUUGGCAGCUCGCGCAUACAUGAGGAUCACCCAUGU [Ex Theophylline A 10] | 0.0164 | – | 0.025 | – | 0.0195
GUAUUAAGAAAACUUGAUACAGUGGGUGAACGAGGACCGGUACGGCCGCCACUCGGACAUGAGGAUCACCCAUGUCCAUGUGAAA [AstrosExyTryA#11] | 0.0174 | 0.0191 | 0.0186 | 0.0172 | 0.0377
GUCACACAGUAGGAUACCAGCGUGGCUUAUCCCUGAUCGUACAUGAGGAUCACCCAUGUCCGCCCUUGGCAGCCUCCUGCUCGGA [theeternabot_exclusion_MS2_Theo_B_33] | 0.0124 | – | 0.0177 | – | 0.0119
GUCGCUGAGGGAAGGAGCGUGAAGACAUGAGGAUCACCCAUGUAGAGGCGCCGAAGGCGUUCGCAGGUAGGUCGCCCUCAGUGAA [#1 Same State - Arginine B Attempt #25 (HarryS)] | 0.0124 | 0.0141 | 0.0221 | 0.0161 | 0.0151
GUCUCUGGGAGAAGGAGCGUGAAGACAUGAGGAUCACCCAUGUAGAGGCGCCGACGGCGUUCGCAGGUAGGUCGCUCCCAGAGAC [#1 Same State - Arginine B Attempt #18 (HarryS)] | 0.0189 | 0.0239 | 0.0445 | 0.11 | 0.014
GUGAGGUUUGAUGAUACCAGAUGUGGUGGGAACAUGAGGAUCACCCAUGUUGUGAAACAGGUCCCUUGGCAGCAUGAGAGAGCUU [TheoB-ms2@32] | 0.0305 | – | 0.0893 | – | 0.0527
GUGGGACAUGAGGAUCACCCAUGUGACGAUACCAGUCAAUUGAUGGACCCUUGGCAGCGUUGGUAUUGCGGGUAGGCGAGAUAAG [theeternabot_sameState_MS2_Theo_A_3] | 0.0214 | – | 0.0602 | – | 0.0404
GUUUUCAAGUCGGCCGCCACUGAUACAAUCCUCACCGGUUCACAUGAGGAUCACCCAUGUUCGCUCAGGACCGGGACCUUCUGUG [theeternabot_exclusion_MS2_Trp_B_3] | 0.0774 | – | 0.141 | 0.142 | –
